A short description of the data set: label from the status in PepcDB records.
In the case of “MINMKVAISMDVDKISNSFEDCKYFLIVRIDDNEVKSTKVIFNDESGKKSIVKENVNAIICKNISEENYKKFSKKIEIYHAEGDDVDKNISLFIEGELSKISNP”, the protein production entry is “not failed”. With “MINQATSPAAPISLTTKGLRWANLAFMLYLLLLAVAMVGSGFKWATGDQAKVLFEFASHPIAGLMIGLVATALIQSSSTVTSIIVGLVAGGLPVETAIPMVMGANIGTTVTNTLVSLGHMRCKEEFRRAFASATIHDFFNLLAVLIFLPLEMMFGILEKVSHWLVSPLLATGDMSMKGFDFIKPITKPVITGLETQLSVLGNTFGGVALIVLGIATIFVAITVMGKLMKSLMVGRAREILQNAIGRGPLHGIASGTVVTVLVQSSSTTTSLMVPLVGSGVLKVREIYPFTLGANIGTCITALLAATAVSGEFAVFALQIALVHLSFNLMATVLIYGIPFLRELPIKGAELISTWACKSKMVVVSYLLGVFVVIPGSILALTA” the entry was “failed”; with “MINSVGVVRKEAENCNCLQVFFVSGSFKVDSVEAKKKEENFRETLRDMANSKYEYVKSFELEDEVMLPNLMVVRIDGRDFSRFSQVHEFEKPNDETALNLMNSCSAAVLEEFPDIIFAYGYSDEYSFVFKKTSRFYQRRASKILSLVASFFAAVYVTKWKEFFPQRKLLYAPSFSSKVVSCASAEVLQAYLAWRQQDCHANNQYDTCFWMLVKSGKSVSETQEILKDTQKQQKNELLFQKFGINYKTLPELFRQGSCLFKKKVEETVKHDENGNPVKRLRRKAVFVHSENIAGRSFWNEQPSLYNDLGHFTKDIGKIEPDFIRSFQFENKLLPLTWVVVRIDGCHFHRFSDVHEFEKPNDEQALKLMNSCAVAVLEEFEDIHFAYGVSDEYSFVLKKESELYKRQSSKIISAVASFFTSTYVLQWGEFFPHKELKYPPSFDGRAVCYPTYNILLDYLAWRQVDCHINNQYNTCFWMLVKSGKNKTQSQDYLKGTQTREKNELLSRQFGIEYNSLPVIFRMGSSVFRLKEAENGVVSGKKLEGEVVVDHCNIIERCFWEEHLHILSYS”, “failed”; with “MINVLILGAASQISRFLIPDLLADKTVYLTLFARQAPQRLGQYAGESRVTLVDGDWNQEADIEQVMSNQDIVFLASSSLVGNQNVVTVMKHTGVQRLIVAGGLGIDDEVAGKFGNWNTRMMGDYTPYKQAAKVILDSGLNTTYLRMTWLYDENGNEKYQIVPEGQPLRGTQVTRQAVAKLVTAIVRQPSLYQYANIGVVEPGTEWDKPSFYLEHHHHHH”, “failed”. As for “MIPFPESRLAAQMSFVVEIDKLKTILRQTLLTDSSRRENDAEHSWHIATMAFLLAEYADEAVQIGRVARMLLIHDIVEIDAGDTFIHDEAGNEDKEERERKAAARLFGLLPPDQAAEYSALWQEYEARETADARFADALDRLQPLLHNFETEGGTWKPHGVTRAKVDKLLPRIEAGSKRLGAYARALVDEAVRRGYLAP”, the protein production entry is “not failed”. With “MIPFTIEYIFVLIGAFLLSIILTPIIRVISLKVGAVDKPNARRINKVPMPSSGGLAIFLSFVVTTLFFMPMAASRHFIEVSYFHYILPVIIGGLVVTTTGFIDDIFELRPRYKMLGIIIAAIIIWKFTHFRFDSFKIPIGGPLLEFGPILTFFLTVLWIISITNAINLIDGLDGLVSGVSIISLATMAVVSYFFLPKIDFFLTLTIVILIASIVGFFPYNYHPAIIYLGDAGALFIGFMIGVLSLQGLKNSTAVAVITPVIILGVPILDTAVAIVRRKLSGKKISEADKMHLHHRLLSMGFTHRGAVLVVYGIAIIFSLIALLLNVSSRIGGIFLLLALLLAMEIFIEGLNIWGENRTPLFNLLKFIGNSDYRQSVIAKYSDKHQK” the entry was “failed”. With “MIPIHPVGGSQTPASSTAAAGTGDAVTSVFLQPGRISLPASPPLSLYVHVPWCVRKCPYCDFNSHAEPEAGIPEDRFLAAIRQDLEAALPMVWGRRVHTIFIGGGTPSLLSARGLDTLLSDIRMLLPVDADAEITMEANPGTFEAERFRSYRASGVNRLSIGIQSFNDTHLQALGRIHSAAEARAAIDIARAHFDNINLDLMFALPGQTLAECEADVEAALSFGTSHVSLYHLTLEPNTYFAKHPPALPDDDTAFAMQDWIHARLAAAGYEHYEVSAYARPGKRCKHNLNYWQFGDYLGIGPGAHGKLSFPHRVIRDMRHKHPETYLRQAETAGGATVVQEQREVDAADLPFEFMLNALRLTDGFPVTLFQERTGLPLRGIERELDAAERRGLLVHDHATIRPTELGQRFLNDLQALFLADDEN” the entry was “failed”; with “MIPLMHDFEGETVLVVGGGSVGARKARTFATEASVVVLSPEFGDRTFADAEKVRAAPTPEDATDWVERTDPALVVAATDDSDLNGAFSTAAAEHGALVNRTDDHGDQSFGNIVVPATVRDDPVTLAIATGGRAPALSKHLRERFEDEFGNAGLMADLVGDLREDLRDRGVPPAKRRDAVRFVVRSREVWKALDSGRSKGEQVARDVIGELPGDQT”, “not failed”.

For the sequence “MIPLVSIIVPMYNVEPFIEECIDSLLRQTLSDIEIILVNDGTPDRSGEIAEDYAKRDARIRVIHQANGGLSSARNTGIKAARGTYIGFVDGDDYVSSAMFQRLTEEAEQNQLDIVGCGFYKQSSDRRTYVPPQLEANRVLTKPEMTEQLKHAHETRFIWYVWRYLYRRELFERANLLFDEDIRFAEDSPFNLSAFREAERVKMLDEGLYIYRENPNSLTEIPYKPAMDEHLQKQYQAKIAFYNHYGLAGACKEDLNVYICRHQLPMLLANACASPNSPKDIKKKIRQILSYDMVRQAVRHTPFQHEKLLRGERLVLALCKWRLTFLIKLFFEQRGTMKGSAKQALEHHHHHH”, the protein production result is “failed”.

Turning to “MIPMEELKVKKITNGTVIDHIDAGKALMVFKVLNVPKETSVMIAINVPSKKKGKKDILKIEGIELKKEDVDKISLISPDVTINIIRNGKVVEKLKPQIPDEIEGTLKCTNPNCITNKEKVRGKFKIESKNPLKIRCYYCEKFLNEVIFE”, the protein production result is “not failed”.

As for “MIPRVRAPELPQNYPWLNTEQPLSIKQLNGRVVILDFWTYCCINCLHVLPDLKYLEQKYKDSLTVIGVHSAKFDNEQETENIRQAILRYDIEHPVLVDKDFRVWQEYAVRAWPTLMVIDPKGYVIGYVSGEGNRDKLDQLITQVIQEHQGAINFQQLSLTLEKQRQPLITPLAFPGKVLATPSGLFVADSGHHRIVVSDFNGEILHLIGNGKSGLTDGNFQEAQFSAPQGMAFDMENQILYLADTENHALRRVDINQQTVETIAGTGEQSRNIQPHGGVGLETALNSPWDLVNIENSLYIAMAGVHQIWQMDLASGVIKTYAGTGVEACLDASLTESAFAQPSGITNNEQELYIADSEISSIRGVGLVEPQEVRTVCGSGGLFGFGDVDGQGEDVRLQHCLGVEYFQNYLWVADTYNHKIKSVSPHTGNCQTVLGDGLAGLQNGQGKNTRFFEPSGLSAIDSYLYISDTNNHVIRRVDLRTLEVTTMQFNGLCAPDVCIPNNFLEHHHHHH”, the protein production result is “failed”.

For “MIPVTSFRGKKVALFGLGGSGLVTARALVAGGAAVVAFDDNPDSVAKAQAEGIATADLHTIDWSSFSSFVLAPGVPLTHPKPHWSVDLAKAAGVEVIGDIELFIRERRVHAPDCPFIAITGTNGKSTTTALIAHILQSSGRDTQLGGNIGTAVLSLDPPKAQRFYVVECSSYQIDLAPTINPTAGILLNLTPDHLDRHGTMQHYADVKERLVAGSGTAIVGVDDSHSTLIADRIERAGVKVERISKRNVVSEGLYAEGSQILRAHGGTSSLLVDLDGIQTLRGSHNAQNAAAAIAACLAVGVSEEEIRAGLKSFPGLKHRMQPVGRRGNVTFVNDSKATNADAAAPALSSFDRIYWIAGGLPKAGGITSLSPLFPRIAKAYLIGEAAAEFAATLGEAVPYEISGTLDKAVQHAAADAEKDATAGNVVMLSPACASFDQYKNFEIRGDSFVAQVAALEGMTMLVHSGKGG”, the protein production result is recorded as “failed”. As for “MIPYVNEYDTPNCNTLAETAKKSIRTPESLGLDRCIQCGACTASCPAARFTDYSPRQIVKKVLENDRSVLESDMIWSCFYCYSCNMRCPRNNSPVTIVQVLRQMAINEGIGIGKLAYFLEIGECLAENGASKVPGAGVKNMERDLGERWIGIKRNLEPIRSELGLSPRDVRDTHGEVQAILESTGYFEREKWIKAGIQEKKLHGFLKADCSDEEKKNGDFCFESDREYTGQEAITV”, the protein production result is “failed”. “MIQEIASILVQPGREADFEAGVAQARPLFMRARGCHGVALHRSIEAPQRYTLVVDWETVDNHMVDFRQSADFQEWRKLVGECFAEPPQVHHEQKVL”: the protein production entry was “not failed”. With “MIQSSLYRALNKGFDYQILACKDFKESELAKEVISYFKPNTKAILFPEFRAKKNDDLRSFFEEFLQLLGGLREFYQALENKQETIIIAPISALLHPLPKKELLESFKITLLEKYNLKDLKDKLFYYGYEILDLVEVEGEASFRGDIVDIYAPNSKAYRLSFFDTECESIKEFDPITQMSLKEDLLEIEIPPTLFSLDESSYKDLKTKVEQSPLNSFSKDLTSFGLWFLGEKAQDLLIVYKSIISPRALEEIQELASLNELDCERFKFLKVLENAQGYEDLEIHAHALEGFIALHSNHKITLLAPNKTILDNAISALDAGNMECVIAPFVLNFKTPDGIFISLNSFERKKKRQKSKLALNELNPGEWVVHDDYGVGVFSQLVQHSVLGSKRDFLEIAYLGEDKLLLPVENLHLIARYVAQSDSVPAKDRLGKGSFLKLKAKVRTKLLEIASKIIELAAERNLILGKKMDVHLAELEVFKSHAGFEYTSDQEKAIAEISKDLSSHRVMDRLLSGDVGFGKTEVAMHAIFCAFLNGFQSALVVPTTLLAHQHFETLRARFENFGVKVARLDRYASEKNKLLKAVELGQVDALIGTHAILGAKFKNLGLVVVDEEHKFGVKQKEALKELSKSVHFLSMSATPIPRTLNMALSQIKGISSLKTPPTDRKPSRTFLKEKNDELLKEIIYRELRRNGQIFYIHNHIASILKVKTKLEDLIPKLKIAILHSQINANESEEIMLEFAKGNYQVLLCTSIVESGIHLPNANTIIIDNAQNFGLADLHQLRGRVGRGKKEGFCYFLIEDQKSLNEQALKRLLALEKNSYLGSGESVAYHDLEIRGGGNLLGQDQSGHIKNIGYALYTRMLEDAIYELSGGKKRLEKSVEIQLGVSAFLNPELIASDSLRLDLYRRLSLCENTDEVGQIHEEIEDRFGKIDDLSAQFLQIITLKILANQLGIIKLSNFNQNITITYSDEKKESLKAPSKDDNDILETLLKHLRAQISLKRR”, the protein production result is recorded as “failed”. For the sequence “MIRGGRNNITSAPAFSKDAKKLLLCTANTVSVYSVATGLKITSLEDHTAPVTSVIVDPSSDETVSYCWTSSLDGKIRIWEFSAPKLLKIFDTHLPIHSLVMIPAQVSHSVIAYVSVEDYSSVSKDLFGQIRRYDLTQDPLHSGDTLKEMEEPKPIVLSPSGEFFGVCHNCSIHIWNVASEHLMPKETTLHHTELITVFAFHPNQRILAAGDVTGRVLIWKDNGIGEFTSVKTEDDTESCTTFNWHSAEVTVLNFSSDGALLYSGVKAGDFVVWELGTGKKQLLPKIGSPLLYFIFSSDSTLSSVICADNQIHLLKMPSMEILRTISGIKPPTPERHGFICYVKTRDICLTRTVSIDRSSGIAAFCTANHRVQLYNLLSDHDISEVQICDHHPDDDDQVRVLVTAVALSRNGSVMTTAEARFAASNFSEGIVSLKFWVFVPDSKTFSLSTVINQPHREAAITAIALNPARSMAVSISSAGDFKIWVCSSDKNLTPEDSNWICHGVGSYKRTPITAAVFSGDGSCLALAAKTVITIWHPLKNELLYVVGKANAPIMELSFTGGGFLIAASHGSTPHLSVWDLMTFCLSWSYRLYIEAIATEVDSPYFAVLTWLPESDRLVKSNEQIFRGKDGAILLFDGSGPKPVAIWTVMKARGGTLSFVEDGKKSQPLLAYVNRSHEYVLFDPYSDEKLETSAIDYEVFLAAISKKKKRSRKKALMSEKPWETMFCGSTLNFPPFPDLCASFFSSRMQKEVCERADRQPERHSS”, the protein production result is recorded as “failed”.

The record behind these values is a protein production outcome set (Wang et al. 2014).
